The source of these data is the supplement of paper PMC7877785.

This data set is described as follows: self-splicing fitness, log relative to wild type (ln ratio); higher = more splicing; Tetrahymena group I intron in knt gene, E. coli kanamycin selection, DiMSum; sequences stand for … in CUCUCU…GGAGGGAAAAGUUAUCAGGCAUGCACCUGGUAGCUAGUCUUUAAACCAAUAGAUUGCAUCGGUUUAAAAGGCAAGACCGUCAAAUUGCGGGAAAGGGGUCAACAGCCGUUCAGUACCAAGUCUCAGGGGAAACUUUGAGAUGGCCUUGCAAAGGGUAUGGUAAUAAGCUGACGGACAUGGUCCUAACCACGCAGCCAAGUCCUAAGUCAACAGAUCUUCUGUUGAUAUGGAUGCAGUUCACAGACUAAAUGUCGGUCGGGGAAGAUGUAUUCUUCUCAUAAGAUAUAGUCGGACCUCUCCUUAAUGGGAGCUAGCGGAUGAAGUGAUGCAACACUGGAGCCGCUGGGAACUAAUUUGUAUGCGAAAGUAUAUUGAUUAGUUUUGGAGUACUCGUGGUCG
The method in brief:
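Library with all eight P1ex-region intron nucleotides randomised, intron inside the knt kanamycin-resistance gene on pET-22b(+), in E. coli BL21(DE3). Cells grew overnight at 37°C or 30°C on LB agar with or without 25 μg/mL kanamycin (plus 100 μg/mL carbenicillin, 50 μM IPTG, 0.2% rhamnose), in six replicate transformations. Pooled colonies were amplicon-sequenced on Illumina HiSeq 2500. DiMSum fitness is the error-weighted combination of wild-type-normalised replicate fold changes, kanamycin versus none.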

± gives the uncertainty stated by the source.

Turning to GGCCAGCAAUAUUACGGCAG, the “self-splicing fitness (ln)” value by setting is: (30 °C) -0.833 ± 0.058; (37 °C) -0.191 ± 0.1. In the case of GAAUAGCAAUAUUACGGUGA, the “self-splicing fitness (ln)” value is -1.69 ± 0.12 (30 °C) and -1.36 ± 0.11 (37 °C). For GCGCAGCAAUAUUACGCUCC, the “self-splicing fitness (ln)” value is -0.982 ± 0.34 (30 °C) and -1.01 ± 0.45 (37 °C). As for GACAAGCAAUAUUACGUGAA, the “self-splicing fitness (ln)” value (30 °C) is -1.81 ± 0.076 and the “self-splicing fitness (ln)” value (37 °C) is -1.11 ± 0.089.

Consider CUGCAGCAAUAUUACGCCGG, for which the “self-splicing fitness (ln)” value (30 °C) is -2.55 ± 0.19 and the “self-splicing fitness (ln)” value (37 °C) is -1.56 ± 0.29. Turning to CAGCAGCAAUAUUACGCGCG, the “self-splicing fitness (ln)” value (30 °C) is -1.63 ± 0.099 and the “self-splicing fitness (ln)” value (37 °C) was -1.3 ± 0.14. Turning to CUGGAGCAAUAUUACGGACU, the “self-splicing fitness (ln)” value runs as follows: (30 °C) -3.12 ± 0.25; (37 °C) -2.07 ± 0.46. Regarding AAAUAGCAAUAUUACGGAAG, the “self-splicing fitness (ln)” value runs as follows: (30 °C) -3.63 ± 0.25; (37 °C) -2.15 ± 0.18. Regarding UCUGAGCAAUAUUACGGCAG, the “self-splicing fitness (ln)” value by setting is: (30 °C) -1.8 ± 0.097; (37 °C) -0.992 ± 0.12. For the sequence AAGAAGCAAUAUUACGCGCC, the “self-splicing fitness (ln)” value runs as follows: (30 °C) -0.652 ± 0.13; (37 °C) -0.664 ± 0.2.

On to GUAAAGCAAUAUUACGUAGG, for which the “self-splicing fitness (ln)” value (30 °C) was -2.5 ± 0.11 and the “self-splicing fitness (ln)” value (37 °C) is -1.35 ± 0.15.

As to AUGAAGCAAUAUUACGACCU, the “self-splicing fitness (ln)” value runs as follows: (30 °C) 0.893 ± 0.14; (37 °C) 1.08 ± 0.15.

On to AUCUAGCAAUAUUACGGGAC, for which the “self-splicing fitness (ln)” value is -2.44 ± 0.17 (30 °C) and -1.03 ± 0.13 (37 °C). Turning to CUUCAGCAAUAUUACGACGC, the “self-splicing fitness (ln)” value was -0.697 ± 0.26 (30 °C) and 0.21 ± 0.28 (37 °C). The corresponding values for GCGAAGCAAUAUUACGUGUU are -2.52 ± 0.11 and -2.07 ± 0.11. GAGUAGCAAUAUUACGGAUA: the “self-splicing fitness (ln)” value reads like this: (30 °C) -2.11 ± 0.25; (37 °C) -2.41 ± 0.25. As for AUGUAGCAAUAUUACGUUCG, the “self-splicing fitness (ln)” value (30 °C) was -0.997 ± 0.095 and the “self-splicing fitness (ln)” value (37 °C) was -0.356 ± 0.12. For AUUAAGCAAUAUUACGAAGC, in that order: -3.3 ± 0.25 and -2.52 ± 0.31. As to UCUCAGCAAUAUUACGCGUA, the “self-splicing fitness (ln)” value runs as follows: (30 °C) -1.04 ± 0.1; (37 °C) -0.966 ± 0.1.

Take GUGAAGCAAUAUUACGAGAG: the “self-splicing fitness (ln)” value is -2.92 ± 0.11 (30 °C) and -1.7 ± 0.1 (37 °C). With CUCAAGCAAUAUUACGUAGA, the “self-splicing fitness (ln)” value is -3.23 ± 0.1 (30 °C) and -1.53 ± 0.11 (37 °C). With GAAAAGCAAUAUUACGCAUA, the “self-splicing fitness (ln)” value is -1.72 ± 0.093 (30 °C) and -0.672 ± 0.083 (37 °C).

Take UCUUAGCAAUAUUACGACUC: where the note is “37 °C”, the “self-splicing fitness (ln)” value is -1.03 ± 0.5. On to CGUCAGCAAUAUUACGCGUC, for which the “self-splicing fitness (ln)” value (30 °C) is -2.38 ± 0.42. As for CAUCAGCAAUAUUACGCGUU, the “self-splicing fitness (ln)” value (30 °C) is -2.17 ± 0.1 and the “self-splicing fitness (ln)” value (37 °C) is -1.54 ± 0.13. On to CCCAAGCAAUAUUACGGUGU, for which the “self-splicing fitness (ln)” value by setting is: (30 °C) -2.71 ± 0.089; (37 °C) -1 ± 0.084. Turning to CAAAAGCAAUAUUACGGAGG, the “self-splicing fitness (ln)” value is, setting by setting: (30 °C) -0.939 ± 0.096; (37 °C) -0.844 ± 0.13. On to AGCUAGCAAUAUUACGAUCG, for which the “self-splicing fitness (ln)” value is, setting by setting: (30 °C) -1.81 ± 0.16; (37 °C) -0.102 ± 0.18. In the case of AACAAGCAAUAUUACGACGC, the “self-splicing fitness (ln)” value runs as follows: (30 °C) -0.761 ± 0.066; (37 °C) -0.386 ± 0.076. For GAUCAGCAAUAUUACGGUGG, in that order: -1.36 ± 0.057 and -0.762 ± 0.073.

As for AACAAGCAAUAUUACGUUCU, the “self-splicing fitness (ln)” value (30 °C) is -2.01 ± 0.064 and the “self-splicing fitness (ln)” value (37 °C) was -1.16 ± 0.094. Take ACGCAGCAAUAUUACGUAAG: the “self-splicing fitness (ln)” value (30 °C) is -0.0743 ± 0.099 and the “self-splicing fitness (ln)” value (37 °C) is -1.27 ± 0.13. For the sequence UUCCAGCAAUAUUACGUUUA, the “self-splicing fitness (ln)” value is -0.628 ± 0.083 (30 °C) and -0.59 ± 0.075 (37 °C). The corresponding values for ACACAGCAAUAUUACGUCCU are -0.17 ± 0.055 and 0.432 ± 0.075.

With GGACAGCAAUAUUACGUAAU, the “self-splicing fitness (ln)” value is -0.0161 ± 0.056 (30 °C) and -0.0127 ± 0.07 (37 °C). With CCCUAGCAAUAUUACGAAUG, the “self-splicing fitness (ln)” value (30 °C) was -4.25 ± 0.46. In the case of CAACAGCAAUAUUACGUAUA, the “self-splicing fitness (ln)” value (30 °C) was -2.76 ± 0.12 and the “self-splicing fitness (ln)” value (37 °C) was -1.55 ± 0.11.

In the case of CGUAAGCAAUAUUACGACAA, under “37 °C”, the “self-splicing fitness (ln)” value is -1.32 ± 0.23. For the sequence ACCCAGCAAUAUUACGACCA, the “self-splicing fitness (ln)” value (30 °C) is -0.474 ± 0.1 and the “self-splicing fitness (ln)” value (37 °C) was -0.703 ± 0.14.
